Results taken from patent US20220411483A1 (Chugai, published 2022).
Changes are numbered by the printed parent chain.

B1: IL6R-P657/IL6R-L (antibody, human IgG1, kappa)
heavy: QVQLQESGPGLVKPSETLSLTCAVSGHSISHDHAWSWVRQPPGEGLEWIGFISYSGITNYNPSLQGRVTISRDNSKNTLYLQMNSLRAEDTAVYYCARSLARTTAMDYWGEGTLVTVSSASTKGPSVFPLAPSSKSTSGGTAALGCLVKDYFPEPVTVSWNSGALTSGVHTFPAVLQSSGLYSLSSVVTVPSSSLGTQTYICNVNHKPSNTKVDKKVEPKSCDKTHTCPPCPAPELLGGDSVMLFPPKPKDTLMISRTPEVTCVVVDVSHEDPEVKFNWYVDGVEVHNAKTKPREEQENSTYRVVSVLTVLHQDWLNGKEYKCKVSNKALPYPIEKTISKAKGQPREPQVYTLPPSRDELTKNQVSLTCLVKGFYPSDIAVEWESNGQPENNYKTTPPVLDSDGSFFLYSKLTVDKSRWQQGNVFSCSVMHEALHNHYTQKSLSLSP
light: not shown
B2: IL6R-P659/IL6R-L (antibody, human IgG1, kappa)
heavy: B1 heavy with G239Q, Y332A
light: not shown
B3: IL6R-P731/IL6R-L (antibody, human IgG1, kappa)
heavy: B1 heavy with G239Q, H270P, S326H, Y332A
light: not shown
B4: IL6R-P661/IL6R-L (antibody, human IgG1, kappa)
heavy: B1 heavy with M243F, E298Y, S300A, Y332H
light: not shown
B5: IL6R-P733/IL6R-L (antibody, human IgG1, kappa)
heavy: B1 heavy with L237F, G239Q, H270P, S326H, Y332A
light: not shown
B6: IL6R-P660/IL6R-L (antibody, human IgG1, kappa)
heavy: B1 heavy with M243F, E298Y, S300A, S326N, Y332A
light: not shown
B7: IL6R-P693/IL6R-L (antibody, human IgG1, kappa)
heavy: B1 heavy with M243F, S300A, Y332A
light: not shown
B8: IL6R-P692/IL6R-L (antibody, human IgG1, kappa)
heavy: B1 heavy with L237F, G239Q, Y332H
light: not shown
B9: IL6R-P691/IL6R-L (antibody, human IgG1, kappa)
heavy: B1 heavy with L237F, G239Q, Y332A
light: not shown
B10: IL6R-P687/IL6R-L (antibody, human IgG1, kappa)
heavy: B1 heavy with M243F, E298Y, S300A, S326N, Y332H
light: not shown

Target: T1, FcγRIIb extracellular domain, His tag (human, UniProt P31994 43-217)
T1 construct: extracellular domain; also called FcgRIIb
T1 sequence (looked up): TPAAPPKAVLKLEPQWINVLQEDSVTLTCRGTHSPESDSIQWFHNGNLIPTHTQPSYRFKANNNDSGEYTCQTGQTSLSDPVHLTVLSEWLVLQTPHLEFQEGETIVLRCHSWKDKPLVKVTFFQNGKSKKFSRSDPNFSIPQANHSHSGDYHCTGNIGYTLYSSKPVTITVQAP
Assay: SPR, bound amount per captured antibody

| Binder | Relative FcgRIIb-binding Activity |
| --- | --- |
| B1 | 115 % of IL6R-G1d/IL6R-L |
| B2 | 87 % of IL6R-G1d/IL6R-L |
| B3 | 85.8 % of IL6R-G1d/IL6R-L |
| B4 | 109 % of IL6R-G1d/IL6R-L |
| B5 | 104 % of IL6R-G1d/IL6R-L |
| B6 | 100 % of IL6R-G1d/IL6R-L |
| B7 | 87.9 % of IL6R-G1d/IL6R-L |
| B8 | 127 % of IL6R-G1d/IL6R-L |
| B9 | 104 % of IL6R-G1d/IL6R-L |
| B10 | 100 % of IL6R-G1d/IL6R-L |

Target: T2, FcγRIIa R type extracellular domain, His tag (human, UniProt P12318 34-217)
T2 construct: extracellular domain; also called FcgRIIaR
T2 sequence (looked up): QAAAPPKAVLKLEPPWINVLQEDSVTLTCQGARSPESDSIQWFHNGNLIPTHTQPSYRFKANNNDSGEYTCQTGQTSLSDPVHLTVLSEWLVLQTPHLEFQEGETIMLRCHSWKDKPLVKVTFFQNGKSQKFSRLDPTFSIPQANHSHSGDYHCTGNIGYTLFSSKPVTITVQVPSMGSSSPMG
Assay: SPR, bound amount per captured antibody

| Binder | Relative FcgRIIaR-binding Activity |
| --- | --- |
| B1 | 15.4 % of IL6R-G1d/IL6R-L |
| B2 | 9.1 % of IL6R-G1d/IL6R-L |
| B3 | 8.1 % of IL6R-G1d/IL6R-L |
| B4 | 17.5 % of IL6R-G1d/IL6R-L |
| B5 | 6.3 % of IL6R-G1d/IL6R-L |
| B6 | 14.7 % of IL6R-G1d/IL6R-L |
| B7 | 11.4 % of IL6R-G1d/IL6R-L |
| B8 | 13.7 % of IL6R-G1d/IL6R-L |
| B9 | 10.7 % of IL6R-G1d/IL6R-L |
| B10 | 12.6 % of IL6R-G1d/IL6R-L |

Target: T3, FcγRIa extracellular domain, His tag (human, UniProt P12314 16-292)
T3 construct: whole entry named; also called FcgRIa
T3 sequence (P12314 16-292): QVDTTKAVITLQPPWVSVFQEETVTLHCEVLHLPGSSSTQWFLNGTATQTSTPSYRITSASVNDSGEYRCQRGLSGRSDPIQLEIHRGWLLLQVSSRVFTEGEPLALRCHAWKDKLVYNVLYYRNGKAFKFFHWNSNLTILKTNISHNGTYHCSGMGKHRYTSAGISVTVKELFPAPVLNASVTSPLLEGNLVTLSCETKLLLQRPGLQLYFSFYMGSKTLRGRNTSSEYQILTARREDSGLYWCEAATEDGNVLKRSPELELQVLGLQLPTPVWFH
Assay: SPR, KD ratio

| Binder | Relative FcgRIa-binding Activity |
| --- | --- |
| B1 | 0.0194 fold of IL6R-G1d/IL6R-L |
| B2 | 0.0041 fold of IL6R-G1d/IL6R-L |
| B3 | 0.0049 fold of IL6R-G1d/IL6R-L |
| B4 | 0.033 fold of IL6R-G1d/IL6R-L |
| B5 | 0.0001 fold of IL6R-G1d/IL6R-L |
| B6 | 0.0446 fold of IL6R-G1d/IL6R-L |
| B7 | 0.0423 fold of IL6R-G1d/IL6R-L |
| B8 | 0.0006 fold of IL6R-G1d/IL6R-L |
| B9 | 0.0004 fold of IL6R-G1d/IL6R-L |
| B10 | 0.0471 fold of IL6R-G1d/IL6R-L |

Target: T1, FcγRIIb extracellular domain, His tag
Assay: SPR, KD ratio

| Binder | Relative FcgRIIb-binding Activity |
| --- | --- |
| B1 | 1.64 fold of IL6R-G1d/IL6R-L |
| B2 | 0.807 fold of IL6R-G1d/IL6R-L |
| B3 | 0.499 fold of IL6R-G1d/IL6R-L |
| B4 | 1.28 fold of IL6R-G1d/IL6R-L |
| B5 | 1.09 fold of IL6R-G1d/IL6R-L |
| B6 | 0.972 fold of IL6R-G1d/IL6R-L |
| B7 | 0.918 fold of IL6R-G1d/IL6R-L |
| B8 | 1.89 fold of IL6R-G1d/IL6R-L |
| B9 | 1.19 fold of IL6R-G1d/IL6R-L |
| B10 | 1.01 fold of IL6R-G1d/IL6R-L |

Target: T4, FcγRIIa H type extracellular domain, His tag (human, UniProt P12318 34-217)
T4 construct: extracellular domain; also called FcgRIIaH
T4 sequence (looked up): T2 sequence (looked up) with R134H
Assay: SPR, KD ratio

| Binder | Relative FcgRIIaH-binding Activity |
| --- | --- |
| B1 | 0.009 fold of IL6R-G1d/IL6R-L |
| B2 | 0.006 fold of IL6R-G1d/IL6R-L |
| B3 | 0.007 fold of IL6R-G1d/IL6R-L |
| B4 | 0.01 fold of IL6R-G1d/IL6R-L |
| B5 | 0.006 fold of IL6R-G1d/IL6R-L |
| B6 | 0.009 fold of IL6R-G1d/IL6R-L |
| B7 | 0.006 fold of IL6R-G1d/IL6R-L |
| B8 | 0.008 fold of IL6R-G1d/IL6R-L |
| B9 | 0.007 fold of IL6R-G1d/IL6R-L |
| B10 | 0.007 fold of IL6R-G1d/IL6R-L |

Target: T2, FcγRIIa R type extracellular domain, …
Assay: SPR, KD ratio

| Binder | Relative FcgRIIaR-binding Activity |
| --- | --- |
| B1 | 0.026 fold of IL6R-G1d/IL6R-L |
| B2 | 0.015 fold of IL6R-G1d/IL6R-L |
| B3 | 0.012 fold of IL6R-G1d/IL6R-L |
| B4 | 0.03 fold of IL6R-G1d/IL6R-L |
| B5 | 0.009 fold of IL6R-G1d/IL6R-L |
| B6 | 0.025 fold of IL6R-G1d/IL6R-L |
| B7 | 0.018 fold of IL6R-G1d/IL6R-L |
| B8 | 0.022 fold of IL6R-G1d/IL6R-L |
| B9 | 0.017 fold of IL6R-G1d/IL6R-L |
| B10 | 0.02 fold of IL6R-G1d/IL6R-L |

Target: T5, FcγRIIIa V type extracellular domain, His tag (human, UniProt P08637 17-208)
T5 construct: extracellular domain; also called FcgRIIIaV
T5 sequence (P08637 17-208 F176V): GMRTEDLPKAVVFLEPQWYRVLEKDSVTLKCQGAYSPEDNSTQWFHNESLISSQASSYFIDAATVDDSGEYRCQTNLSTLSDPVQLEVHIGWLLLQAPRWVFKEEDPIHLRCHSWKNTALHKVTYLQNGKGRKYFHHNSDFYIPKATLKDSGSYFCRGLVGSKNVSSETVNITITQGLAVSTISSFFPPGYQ
Assay: SPR, KD ratio

| Binder | Relative FcgRIIIaV-binding Activity |
| --- | --- |
| B1 | 0.005 fold of IL6R-G1d/IL6R-L |
| B2 | 0.005 fold of IL6R-G1d/IL6R-L |
| B3 | 0.006 fold of IL6R-G1d/IL6R-L |
| B4 | 0.012 fold of IL6R-G1d/IL6R-L |
| B5 | 0.004 fold of IL6R-G1d/IL6R-L |
| B6 | 0.011 fold of IL6R-G1d/IL6R-L |
| B7 | 0.008 fold of IL6R-G1d/IL6R-L |
| B8 | 0.006 fold of IL6R-G1d/IL6R-L |
| B9 | 0.007 fold of IL6R-G1d/IL6R-L |
| B10 | 0.008 fold of IL6R-G1d/IL6R-L |
